Source: article PMC4678855 (Nucleic Acids Research, 2015)

Experiments:
[1] = target: B. subtilis β-clamp, cysteine-modified variant (residues 1–380 including the added Ser379–Cys380 dipeptide) (B. subtilis) (UniProt P05649); assay: SAXS
SAXS = target: the molecule itself; assay: SAXS

stoichiometry N [1]: 1
B1: B. subtilis MutL C-terminal domain, inactive cysteine-modified variant (residues 433–627; E485C, C531S, C573S, C604S) (domain or fragment, UniProt P49850 433-627, looked up)
chain: SDRVPIMYPIGQMHGTYILAQNENGLYIIDQHAAQERIKYEYFREKVGEVEPCVQEMIVPLTFHYSTNEALIIEQHKQELESVGVFLESFGSNSYIVRSHPAWFPKGEEAELIEEIIQQVLDSKNIDIKKLREEAAIMMSSKGSIKANRHLRNDEIKALLDDLRSTSDPFTSPHGRPIIIHHSTYEMEKMFKRVM
stoichiometry N (SAXS): 2
